Test results as given in paper PMC12711061, “Far-infrared irradiation attenuates vessel contraction by activating SERCA2 through disruption of SERCA2 and PLN interaction” (PLOS One, 2025).

Target: sarcoendoplasmic reticulum Ca2+-ATPase 2 (SERCA2), endogenous in rat VSMCs (rat (endogenous in rat aortic VSMCs), UniProt P11507 1-1043)
Assay: cell-based or functional assay

sarcoendoplasmic reticulum Ca2+-ATPase 2 (SERCA2), endogenous in rat VSMCs, sequence (P11507 whole entry): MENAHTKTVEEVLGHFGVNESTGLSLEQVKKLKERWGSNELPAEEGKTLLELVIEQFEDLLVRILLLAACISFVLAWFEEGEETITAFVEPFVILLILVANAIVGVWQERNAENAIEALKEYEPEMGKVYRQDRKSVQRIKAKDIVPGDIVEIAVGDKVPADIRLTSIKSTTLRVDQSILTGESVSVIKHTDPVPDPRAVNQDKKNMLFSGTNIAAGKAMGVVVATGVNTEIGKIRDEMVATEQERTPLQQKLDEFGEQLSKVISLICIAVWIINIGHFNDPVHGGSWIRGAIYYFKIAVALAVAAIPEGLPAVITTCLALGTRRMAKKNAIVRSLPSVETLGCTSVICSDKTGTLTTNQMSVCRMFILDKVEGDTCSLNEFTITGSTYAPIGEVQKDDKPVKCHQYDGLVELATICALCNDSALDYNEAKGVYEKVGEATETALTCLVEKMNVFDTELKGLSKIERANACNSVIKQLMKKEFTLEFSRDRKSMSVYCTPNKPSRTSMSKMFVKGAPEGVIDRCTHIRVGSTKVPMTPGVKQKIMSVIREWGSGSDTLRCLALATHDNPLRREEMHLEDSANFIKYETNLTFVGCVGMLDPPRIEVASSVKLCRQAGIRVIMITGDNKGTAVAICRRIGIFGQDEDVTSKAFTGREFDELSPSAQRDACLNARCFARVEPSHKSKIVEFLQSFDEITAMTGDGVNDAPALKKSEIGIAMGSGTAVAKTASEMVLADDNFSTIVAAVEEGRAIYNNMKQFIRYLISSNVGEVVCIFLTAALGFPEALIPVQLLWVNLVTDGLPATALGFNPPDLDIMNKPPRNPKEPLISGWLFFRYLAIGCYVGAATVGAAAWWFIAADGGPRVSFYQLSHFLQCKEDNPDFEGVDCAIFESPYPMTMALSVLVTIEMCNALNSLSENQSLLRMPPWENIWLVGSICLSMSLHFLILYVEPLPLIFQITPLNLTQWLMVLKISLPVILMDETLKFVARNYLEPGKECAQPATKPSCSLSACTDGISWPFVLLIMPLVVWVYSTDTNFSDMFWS

B1: phospholamban (PLN), endogenous in rat VSMCs (natural protein, rat (endogenous in rat aortic VSMCs), UniProt P61016 1-52, looked up)
chain: MEKVQYLTRSAIRRASTIEMPQQARQNLQNLFINFCLILICLLLICIIVMLL
Ca2+-dependent SERCA activity in VSMC lysate (enzyme-coupled spectrophotometric assay), FIR irradiation for 30 min against the RT control: 4.5 fold
